Measured values as given in article PMC7877763 (2021).

B1: recombinant canine HSP47-R222S (natural protein)
chain: LSPKAATLAERSAGLAFSLYQAMAKDQAVENILLSPVVVASSLGLVSLGGKATTASQAKAVLSAEQLRDEEVHAGLGELLRSLSNSTARNVTWKLGSRLYGPSSVSFAEDFVRSSKQHYNCEHSKINFRDKRSALQSINEWAAQTTDGKLPEVTKDVERTDGALLVNAMFFKPHWDEKFHHKMVDNSGFMVTRSYTVGVTMMHRTGLYNYYDDEKEKLQIVEMPLAHKLSSLIILMPHHVEPLERLEKLLTKEQLKIWMGKMQKKAVAISLPKGVVEVTHDLQKHLAGLGLTEAIDKNKADLSRMSGKKDLYLASVFHATAFEWDTEGNPFDQDIYGREELRSPKLFYADHPFIFLVRDTQSGSLLFIGRLVRPKGDKMRDEL
B2: recombinant wild-type canine HSP47 (natural protein)
chain: LSPKAATLAERSAGLAFSLYQAMAKDQAVENILLSPVVVASSLGLVSLGGKATTASQAKAVLSAEQLRDEEVHAGLGELLRSLSNSTARNVTWKLGSRLYGPSSVSFAEDFVRSSKQHYNCEHSKINFRDKRSALQSINEWAAQTTDGKLPEVTKDVERTDGALLVNAMFFKPHWDEKFHHKMVDNRGFMVTRSYTVGVTMMHRTGLYNYYDDEKEKLQIVEMPLAHKLSSLIILMPHHVEPLERLEKLLTKEQLKIWMGKMQKKAVAISLPKGVVEVTHDLQKHLAGLGLTEAIDKNKADLSRMSGKKDLYLASVFHATAFEWDTEGNPFDQDIYGREELRSPKLFYADHPFIFLVRDTQSGSLLFIGRLVRPKGDKMRDEL

Experiments:
[1] = molecular target: GPR-foldon (foldon stabilized collagen model peptide containing a (GPP)5GPR(GPP)6 collagen sequence) (biotinylated (site not stated) for the BLI experiment); test: BLI
[2] = molecular target: full length pepsinized type I collagen from mouse tail tendon (mouse, UniProt P11087 152-1207; Q01149 86-1125); test: SPR
Sequence of full length pepsinized type I collagen from mouse tail tendon (P11087 152-1207, chain 1 of 2): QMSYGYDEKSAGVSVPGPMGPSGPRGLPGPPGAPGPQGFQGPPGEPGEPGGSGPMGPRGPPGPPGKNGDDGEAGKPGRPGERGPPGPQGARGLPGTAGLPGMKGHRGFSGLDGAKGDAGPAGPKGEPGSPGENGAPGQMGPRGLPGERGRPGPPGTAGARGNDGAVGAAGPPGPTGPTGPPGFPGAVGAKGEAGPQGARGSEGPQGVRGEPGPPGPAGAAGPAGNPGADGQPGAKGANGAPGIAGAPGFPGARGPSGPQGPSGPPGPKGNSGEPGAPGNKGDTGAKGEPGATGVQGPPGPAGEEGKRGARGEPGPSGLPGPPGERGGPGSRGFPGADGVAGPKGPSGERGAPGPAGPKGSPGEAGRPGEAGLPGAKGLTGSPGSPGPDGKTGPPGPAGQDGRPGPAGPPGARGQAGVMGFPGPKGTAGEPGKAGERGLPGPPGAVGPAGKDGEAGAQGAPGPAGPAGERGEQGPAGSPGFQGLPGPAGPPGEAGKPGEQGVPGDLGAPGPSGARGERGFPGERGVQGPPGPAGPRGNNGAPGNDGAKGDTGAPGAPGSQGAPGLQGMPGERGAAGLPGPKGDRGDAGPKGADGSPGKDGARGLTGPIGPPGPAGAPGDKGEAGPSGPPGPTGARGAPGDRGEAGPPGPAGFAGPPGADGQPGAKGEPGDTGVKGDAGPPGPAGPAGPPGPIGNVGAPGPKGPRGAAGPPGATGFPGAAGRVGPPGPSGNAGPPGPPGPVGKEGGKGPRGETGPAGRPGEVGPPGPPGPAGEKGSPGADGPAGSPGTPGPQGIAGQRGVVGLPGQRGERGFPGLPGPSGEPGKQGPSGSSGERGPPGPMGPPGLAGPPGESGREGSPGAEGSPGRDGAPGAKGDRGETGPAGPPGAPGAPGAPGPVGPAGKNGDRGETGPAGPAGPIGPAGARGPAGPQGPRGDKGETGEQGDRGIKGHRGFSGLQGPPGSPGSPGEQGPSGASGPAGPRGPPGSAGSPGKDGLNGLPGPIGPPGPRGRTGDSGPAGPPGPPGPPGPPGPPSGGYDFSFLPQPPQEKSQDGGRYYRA
Sequence of full length pepsinized type I collagen from mouse tail tendon (Q01149 86-1125, chain 2 of 2): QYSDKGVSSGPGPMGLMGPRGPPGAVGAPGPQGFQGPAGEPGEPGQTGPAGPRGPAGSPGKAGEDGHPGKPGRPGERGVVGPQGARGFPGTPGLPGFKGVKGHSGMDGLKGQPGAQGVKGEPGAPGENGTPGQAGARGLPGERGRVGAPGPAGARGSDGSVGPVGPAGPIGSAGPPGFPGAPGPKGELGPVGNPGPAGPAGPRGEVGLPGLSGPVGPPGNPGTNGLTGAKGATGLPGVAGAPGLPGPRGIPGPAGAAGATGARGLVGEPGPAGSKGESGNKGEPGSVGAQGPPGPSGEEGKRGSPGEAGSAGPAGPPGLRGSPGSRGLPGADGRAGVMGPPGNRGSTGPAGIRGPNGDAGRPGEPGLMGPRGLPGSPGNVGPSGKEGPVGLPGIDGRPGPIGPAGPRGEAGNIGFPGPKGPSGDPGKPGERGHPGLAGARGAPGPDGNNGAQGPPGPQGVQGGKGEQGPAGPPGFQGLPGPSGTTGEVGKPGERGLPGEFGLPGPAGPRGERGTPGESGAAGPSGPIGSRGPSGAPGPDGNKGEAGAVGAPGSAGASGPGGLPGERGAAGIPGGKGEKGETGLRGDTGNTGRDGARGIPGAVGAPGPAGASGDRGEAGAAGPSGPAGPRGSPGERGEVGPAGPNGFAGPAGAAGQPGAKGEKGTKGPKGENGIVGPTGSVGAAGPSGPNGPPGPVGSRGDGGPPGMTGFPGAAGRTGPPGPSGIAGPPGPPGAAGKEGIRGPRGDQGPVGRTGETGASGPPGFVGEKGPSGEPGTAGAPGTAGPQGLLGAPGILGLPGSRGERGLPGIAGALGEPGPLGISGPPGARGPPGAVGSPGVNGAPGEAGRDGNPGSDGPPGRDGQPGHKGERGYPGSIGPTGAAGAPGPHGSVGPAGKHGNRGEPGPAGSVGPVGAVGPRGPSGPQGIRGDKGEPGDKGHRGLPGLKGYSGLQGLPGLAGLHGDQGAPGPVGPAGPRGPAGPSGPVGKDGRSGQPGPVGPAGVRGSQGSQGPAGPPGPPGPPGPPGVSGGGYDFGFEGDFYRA

Row | Binder | koff [1] | koff [2]
1 | B1 | 0.0186 s⁻¹ | 0.003 s⁻¹
2 | B2 | 0.0185 s⁻¹ | 0.011 s⁻¹
